Measured values: article PMC7771068
Read-outs that look alike come from different tables or passages of the source.

Legend:
Assay in all cases: MST
[1] = molecular target: T1, A3G-NTD-CTD2 (wild-type NTD fused to soluble CTD2) (Homo sapiens, UniProt Q9HC16 1-384, P200A;L234K;N236A;C243A;P247K;F310K;Q318K;C321A;Q322K;C356A)
[2] = molecular target: T1, A3G-NTD-CTD2 (wild-type NTD fused to …); remark: listed apart in the source
A3G-NTD-R24A-CTD2 = A3G-NTD-R24A-CTD2 (Homo sapiens, UniProt Q9HC16 1-384, R24A;P200A;L234K;N236A;C243A;P247K;F310K;Q318K;C321A;Q322K;C356A)
Chain of A3G-NTD-R24A-CTD2 (Q9HC16 whole entry R24A/P200A/L234K/N236A/C243A/P247K/F310K/Q318K/C321A/Q322K/C356A, the tested form may be a part): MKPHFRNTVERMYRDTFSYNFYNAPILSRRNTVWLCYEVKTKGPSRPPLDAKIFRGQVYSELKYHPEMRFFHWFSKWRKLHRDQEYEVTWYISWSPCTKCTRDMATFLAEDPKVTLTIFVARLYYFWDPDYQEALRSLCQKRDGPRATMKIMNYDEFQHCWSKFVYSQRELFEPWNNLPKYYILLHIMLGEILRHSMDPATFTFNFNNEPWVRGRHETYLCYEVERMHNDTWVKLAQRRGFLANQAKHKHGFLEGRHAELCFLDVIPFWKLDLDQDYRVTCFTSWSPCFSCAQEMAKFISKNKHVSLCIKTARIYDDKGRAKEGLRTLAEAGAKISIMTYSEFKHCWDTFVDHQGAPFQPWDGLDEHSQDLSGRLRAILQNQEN

[3] = molecular target: T1, A3G-NTD-CTD2 (wild-type NTD fused to …); remark: listed apart in the source

T1 sequence (Q9HC16 whole entry P200A/L234K/N236A/C243A/P247K/F310K/Q318K/C321A/Q322K/C356A, the tested form may be a part): as the sequence (Q9HC16 whole entry R24A/P200A/L234K/N236A/C243A/P247K/F310K/Q318K/C321A/Q322K/C356A, the tested form may be a part) above, with A24R counted along it

Binder	Kd [1]	Kd [2]	Kd (A3G-NTD-R24A-CTD2)	Kd [3]
AATCCCAAA (ssDNA) [9-nt CCC]	20.5 µM	–	–	–
AATCCCAATTTTTTTT (ssDNA) [16-nt CCC (5'-TCCC-polyT)]	–	6.8 µM	24.6 ± 2.7 µM	4.9 ± 0.1 µM
AATTCCAATTTTTTTT (ssDNA) [16-nt CC (5'-TCC-polyT)]	–	–	132 ± 2.6 µM	31.4 ± 3.8 µM
